According to article PMC6556216:

Target: Maporal virus (MPRLV) Gn/Gc virus-like particles (Maporal virus (MPRLV))
Experiment: BLI

Substance: soluble PCDH1 EC1-EC2 (sEC1–2) (from UniProt Q08174-1 58-284) (domain or fragment)
- Kd: 7 nM
